These results are taken from US20190290729A1, “PHARMACEUTICAL ASSOCIATION OF GROWTH FACTOR RECEPTOR AGONIST AND ADHESION PROTEIN INHIBITOR FOR CONVERTING A NEOPLASTIC CELL INTO A NON-NEOPLASTIC CELL AND USES THEREOF” (HISTIDE AG, priority 2015, published 2019).

Where no end group is shown, it is not given here.

One test deals with osteosarcoma cells. The experiment in a line: Immunofluorescence of cell adhesion and morphology on grafted polymer scaffolds (actin, vinculin, DAPI). The following applies: polymer scaffold covalently modified with mixture of GFR-binding compound and RGD peptide, 24 hours of culture. Format: cell-based. The protocol:
FIG. 9 is (a) a representation of a Quantitative Real Time PCR analysis of the expression of DMP-1, SCT and RANK-L in neoplastic cells (osteosarcoma cells) cultured on a native polymer scaffold (control) and on a polymer scaffold grafted with a mixture comprising a GFR-binding compound as defined in the present disclosure and a RGD peptide, after 24 hours of culture, (b) immunofluorescence staining of a representative neoplastic cell (osteosarcoma cells) cultured on a polymer scaffold grafted with a mixture comprising a GFR-binding compound as defined in the present disclosure (ID SEQ NO: 2) and a RGD peptide, after 24 hours of culture. The actin filaments were immunostained by using Alexa 488-phalloidin. The focal adhesions were represented by immunostaining with anti-vinculin. The nucleus was stained with DAPI and is represented by a circle in the center of the cell. Scale bar: 5 μm. (c) is a diagram representing the grafting density of a radiolabeled GFR-binding compound as defined in the present disclosure covalently grafted on a polymer scaffold and of a radiolabeled GFR-binding compound and a non-labeled RGD peptide both grafted on a polymer scaffold. The measurements were performed by using radioactivity quantification (no significant difference was observed). […]

The target in another test is growth factor receptors. The experiment in a line: cell-based or functional assay.

With “SEQ ID NO: 2: GFR-binding compound as defined in the present disclosure, grafted with a RGD peptide on a polymer scaffold (KVGKASSAPTKLSAISMLYLDDMGVPTLKNYQNMVVR; also: grafted with RGD peptide on polymer scaffold)”, in the test on osteosarcoma cells, the “morphology of neoplastic cells (immunofluorescence)” value is reported as “Spheroid-like structures of neoplastic cells become predominant”.
Molecule VPTHHSAISTLYLELAGEKPLKNYQFLQHNK [GFR-binding compound SEQ ID NO: 57] registered a p-Smad1/5/8 (%) with growth factor receptors of 38%.
For the molecule RNVQCRPTQLEPLPIVYYEIVRKKPEQLSNTLEDHLA (not fully specified) [GFR-binding compound SEQ ID NO: 61], in the test with growth factor receptors, the p-Smad1/5/8 (%) is 44%.
Regarding VSQDLSAISTLYLKIVRKEPLKNYQEMVEE [GFR-binding compound SEQ ID NO: 58], the p-Smad1/5/8 (%) with growth factor receptors came to 49%.
Still for that read-out and setting: then NDEGLECVPTEERPVQVRKIRIKPHQGQKKATVFLQHNK (not fully specified) [GFR-binding compound SEQ ID NO: 59], with 34%.
